This note sets out measurements from publication doi:10.1101/2022.11.15.516577 (bioRxiv, 2022).

As a reminder, the koff is the rate constant with which the complex falls apart. A higher koff goes with fast dissociation.

Holding throughout (experiment): single-molecule TIRF colocalisation with deconvolution of colocalisation times
In test [1] the target is T1, N-terminally SNAP-tagged human β2-adrenergic receptor (SNAP-β2AR) (human, UniProt P07550 1-413, SNAP-Surface Alexa Fluor 647 on the SNAP-tag).
Test [2] concerns the target T1, N-terminally SNAP-tagged human …. This is another data set of the same source.
Test [3] shares this target. This is another data set of the same source.

Read-outs that look alike come from different tables or passages of the source.

B1: C-terminally Halo-tagged bovine β-arrestin 2 (βArr2-Halo) (natural protein)
chain: MGEKPGTRVFKKSSPNCKLTVYLGKRDFVDHLDKVDPVDGVVLVDPDYLKDRKVFVTLTCAFRYGREDLDVLGLSFRKDLFIANYQAFPPTPNPPRPPTRLQERLLRKLGQHAHPFFFTIPQNLPCSVTLQPGPEDTGKACGVDFEIRAFCAKSLEEKSHKRNSVRLVIRKVQFAPEKPGPQPSAETTRHFLMSDRSLHLEASLDKELYYHGEPLNVNVHVTNNSTKTVKKIKVSVRQYADICLFSTAQYKCPVAQVEQDDQVSPSSTFCKVYTITPLLSNNREKRGLALDGKLKHEDTNLASSTIVKEGANKEVLGILVSYRVKVKLVVSRGGDVSVELPFVLMHPKPHDHIALPRPQSAAPETDAPVDTNLIEFETNYATDDDIVFEDFARLRLKGLKDEDYDDQFC
modifications: Halo-JF549 on the Halo-tag (single-molecule microscopy); Halo-R110 on the Halo-tag (BRET)
B1 registered an off-rate constant (koff) in test [1] of 1.34 s⁻¹. Besides, the “fold increase in kon versus basal” value in test [2] was around 1.4 fold; in test [3], around 1.8 fold.
